From USRE40850E1
Several values for one entry are separate records, joined by “and”; a condition that tells them apart may be missing. Equal entries are not always repeated.

Legend:
[1] = target: PTH receptor present on the SaOS-2 (human osteosarcoma cells) (human (SaOS-2 human osteosarcoma cells)) (UniProt Q03431)
[2] = target: PTH receptor present on the SaOS-2 (human osteosarcoma cells) (human (SaOS-2 human osteosarcoma cells)) (UniProt Q03431); assay: displacement of mono-125I-[Nle8,18,Tyr34(3-125I)]bPTH(1-34)NH2 from SaOS-2 cells; Kd defined as half maximal inhibition

Question: With “[Cha^7,11, Nle^8,18, Aib^16,19, Tyr^34]hPTH(1-34)NH2 (from UniProt P01270) (peptide)” as the substance, how does the EC50 (half maximal stimulation of adenylate cyclase, cAMP synthesis in SaOS-2 cells) [1] read?
Answer: 1.5 nM

Question: And the Kd [2]?
Answer: 5 nM

Question: “[Aib^10]hPTH(1-34)NH2 (from UniProt P01270) (peptide)” was tested. Which EC50 (half maximal stimulation of adenylate cyclase, cAMP synthesis in SaOS-2 cells) [1] did it give?
Answer: 0.7 nM

Question: And the Kd [2]?
Answer: 4 nM

Question: Which results are given for “[Cha^31]hPTH(1-34)NH2 (from UniProt P01270) (peptide)”?
Answer: EC50 (half maximal stimulation of adenylate cyclase, cAMP synthesis in SaOS-2 cells) [1]: 4 nM; Kd [2]: 30 nM

Question: For “[Aib^16,19]hPTH(1-34)NH2 (from UniProt P01270) (peptide)”, which EC50 (half maximal stimulation of adenylate cyclase, cAMP synthesis in SaOS-2 cells) [1] is on record?
Answer: 0.6 nM

Question: And the Kd [2]?
Answer: 4 nM

Question: “[Cha^23]hPTH(1-34)NH2 (from UniProt P01270) (peptide)” was tested. Which EC50 (half maximal stimulation of adenylate cyclase, cAMP synthesis in SaOS-2 cells) [1] did it give?
Answer: 20 nM

Question: And the Kd [2]?
Answer: 200 nM

Question: What does the source list for “[Cha^7]hPTH(1-34)NH2 (from UniProt P01270) (peptide)”?
Answer: EC50 (half maximal stimulation of adenylate cyclase, cAMP synthesis in SaOS-2 cells) [1]: 2.3 nM; Kd [2]: 20 nM

Question: With “[Cha^28]hPTH(1-34)NH2 (from UniProt P01270) (peptide)” as the substance, how does the EC50 (half maximal stimulation of adenylate cyclase, cAMP synthesis in SaOS-2 cells) [1] read?
Answer: 2.5 nM

Question: And the Kd [2]?
Answer: 50 nM

Question: What does the source list for “[hArg^27]hPTH(1-34)NH2 (from UniProt P01270) (peptide)”?
Answer: EC50 (half maximal stimulation of adenylate cyclase, cAMP synthesis in SaOS-2 cells) [1]: 1 nM; Kd [2]: 7 nM

Question: For “[Cha^28,31]hPTH(1-34)NH2 (from UniProt P01270) (peptide)”, which EC50 (half maximal stimulation of adenylate cyclase, cAMP synthesis in SaOS-2 cells) [1] is on record?
Answer: 7 nM

Question: What about the Kd [2] of the same substance?
Answer: 60 nM

Question: Which EC50 (half maximal stimulation of adenylate cyclase, cAMP synthesis in SaOS-2 cells) [1] does the source give for “[Aib^17]hPTH(1-34)NH2 (from UniProt P01270) (peptide)” here?
Answer: 2 nM and 3 nM

Question: What about the Kd [2] of the same substance?
Answer: 5 nM and 50 nM

Question: Which results are given for “[Aib^3]hPTH(1-34)NH2 (from UniProt P01270) (peptide)”?
Answer: EC50 (half maximal stimulation of adenylate cyclase, cAMP synthesis in SaOS-2 cells) [1]: 1.1 nM; Kd [2]: 4 nM

Question: With “[Cha^15]hPTH(1-34)NH2 (from UniProt P01270) (peptide)” as the substance, how does the EC50 (half maximal stimulation of adenylate cyclase, cAMP synthesis in SaOS-2 cells) [1] read?
Answer: 1.3 nM

Question: And the Kd [2]?
Answer: 5 nM

Question: “[Aib^19]hPTH(1-34)NH2 (from UniProt P01270) (peptide)” was tested. Which EC50 (half maximal stimulation of adenylate cyclase, cAMP synthesis in SaOS-2 cells) [1] did it give?
Answer: 0.6 nM

Question: What about the Kd [2] of the same substance?
Answer: 5 nM

Question: Which results are given for “[Cha^24,28,31, Lys^30]hPTH(1-34)NH2 (from UniProt P01270) (peptide)”?
Answer: EC50 (half maximal stimulation of adenylate cyclase, cAMP synthesis in SaOS-2 cells) [1]: 7 nM; Kd [2]: 500 nM

Question: For “[Cha^7,11, Nle^8,18, Tyr^34]hPTH(1-34)NH2 (from UniProt P01270) (peptide)”, which EC50 (half maximal stimulation of adenylate cyclase, cAMP synthesis in SaOS-2 cells) [1] is on record?
Answer: 0.6 nM

Question: What about the Kd [2] of the same substance?
Answer: 6 nM

Question: Which results are given for “[Aib^34]hPTH(1-34)NH2 (from UniProt P01270) (peptide)”?
Answer: EC50 (half maximal stimulation of adenylate cyclase, cAMP synthesis in SaOS-2 cells) [1]: 3 nM; Kd [2]: 7 nM

Question: Which EC50 (half maximal stimulation of adenylate cyclase, cAMP synthesis in SaOS-2 cells) [1] does the source give for “[Cha^11]hPTH(1-34)NH2 (from UniProt P01270) (peptide)” here?
Answer: 2 nM

Question: And the Kd [2]?
Answer: 5 nM

Question: Which results are given for “[Nle^8,18, Cha^27]hPTH(1-34)NH2 (from UniProt P01270) (peptide)”?
Answer: EC50 (half maximal stimulation of adenylate cyclase, cAMP synthesis in SaOS-2 cells) [1]: 2 nM; Kd [2]: 50 nM

Question: With “[Cha^7,11, Aib^19]hPTH(1-34)NH2 (from UniProt P01270) (peptide)” as the substance, how does the EC50 (half maximal stimulation of adenylate cyclase, cAMP synthesis in SaOS-2 cells) [1] read?
Answer: 0.5 nM

Question: What about the Kd [2] of the same substance?
Answer: 7 nM

Question: With “[Cha^7,11]hPTH(1-34)NH2 (from UniProt P01270) (peptide)” as the substance, how does the EC50 (half maximal stimulation of adenylate cyclase, cAMP synthesis in SaOS-2 cells) [1] read?
Answer: 0.6 nM

Question: And the Kd [2]?
Answer: 10 nM

Question: What does the source list for “[Cha^7,11, Aib^16]hPTH(1-34)NH2 (from UniProt P01270) (peptide)”?
Answer: EC50 (half maximal stimulation of adenylate cyclase, cAMP synthesis in SaOS-2 cells) [1]: 1.1 nM; Kd [2]: 4 nM

Question: For “[Nle^31]hPTH(1-34)NH2 (from UniProt P01270) (peptide)”, which EC50 (half maximal stimulation of adenylate cyclase, cAMP synthesis in SaOS-2 cells) [1] is on record?
Answer: 0.7 nM

Question: And the Kd [2]?
Answer: 4 nM

Question: Which EC50 (half maximal stimulation of adenylate cyclase, cAMP synthesis in SaOS-2 cells) [1] does the source give for “[Cha^7,11, Nle^8,18,31, Aib^34]hPTH(1-34)NH2 (from UniProt P01270) (peptide)” here?
Answer: 1.5 nM

Question: And the Kd [2]?
Answer: 30 nM

Question: With “[Dap^1, Nle^8,18, Tyr^34]hPTH(1-34)NH2 (from UniProt P01270) (peptide)” as the substance, how does the EC50 (half maximal stimulation of adenylate cyclase, cAMP synthesis in SaOS-2 cells) [1] read?
Answer: 10 nM

Question: And the Kd [2]?
Answer: 150 nM

Question: What does the source list for “[Cha^7,11, Nle^8,18,31, Aib^16,19, Tyr^34]hPTH(1-34)NH2 (from UniProt P01270) (peptide)”?
Answer: EC50 (half maximal stimulation of adenylate cyclase, cAMP synthesis in SaOS-2 cells) [1]: 4 nM; Kd [2]: 40 nM

Question: Which EC50 (half maximal stimulation of adenylate cyclase, cAMP synthesis in SaOS-2 cells) [1] does the source give for “[Cha^7,11,15]hPTH(1-34)NH2 (from UniProt P01270) (peptide)” here?
Answer: 1.4 nM

Question: What about the Kd [2] of the same substance?
Answer: 10 nM

Question: Which results are given for “[Cha^7,11, Aib^19, Lys^30]hPTH(1-34)NH2 (from UniProt P01270) (peptide)”?
Answer: EC50 (half maximal stimulation of adenylate cyclase, cAMP synthesis in SaOS-2 cells) [1]: 2 nM; Kd [2]: 4 nM

Question: What does the source list for “[Cha^24]hPTH(1-34)NH2 (from UniProt P01270) (peptide)”?
Answer: EC50 (half maximal stimulation of adenylate cyclase, cAMP synthesis in SaOS-2 cells) [1]: 10 nM; Kd [2]: 100 nM

Question: How did the EC50 (half maximal stimulation of adenylate cyclase, cAMP synthesis in SaOS-2 cells) [1] turn out when “[Cha^24,28,31]hPTH(1-34)NH2 (from UniProt P01270) (peptide)” was run?
Answer: 30 nM

Question: What about the Kd [2] of the same substance?
Answer: 1000 nM
